# pKd: −log10 of the molar value.
# Experiments:
# Conditions in all cases: source organism: Rickettsia bellii OSU 85-389
# [1] = biological target: HLA-A*02:01; experiment: IEDB peptide-MHC binding, purified MHC/direct/fluorescence; filed as Kd, often an IC50 or EC50 that approximates it; ≥ and ≤ were set here for values at or beyond the usual limits of such assays
# [2] = biological target: HLA-A*02:03; experiment: as above
# [3] = biological target: HLA-A*02:11; experiment: as above
# [4] = biological target: HLA-A*02:12; experiment: as above
# [5] = biological target: HLA-A*02:16; experiment: as above
# [6] = biological target: HLA-A*02:19; experiment: as above
# [7] = biological target: HLA-A*03:01; experiment: as above
# [8] = biological target: HLA-A*24:03; experiment: as above
# [9] = biological target: HLA-A*26:01; experiment: as above
# [10] = biological target: HLA-A*29:02; experiment: as above
# [11] = biological target: HLA-A*68:02; experiment: as above
# [12] = biological target: HLA-B*15:01; experiment: as above
# [13] = biological target: HLA-B*15:17; experiment: as above
# [14] = biological target: HLA-B*18:01; experiment: as above
# [15] = biological target: HLA-B*27:03; experiment: as above
# [16] = biological target: HLA-B*39:01; experiment: as above
# [17] = biological target: HLA-B*46:01; experiment: as above
# [18] = biological target: HLA-B*51:01; experiment: as above
# [19] = biological target: HLA-B*57:01; experiment: as above
# [20] = biological target: HLA-A*30:02; experiment: IEDB peptide-MHC binding, purified MHC/competitive/fluorescence; filed as Kd, often an IC50 or EC50 that approximates it; ≥ and ≤ were set here for values at or beyond the usual limits of such assays
# [21] = biological target: HLA-A*66:01; experiment: as above
# [22] = biological target: HLA-B*07:02; experiment: as above
# [23] = biological target: HLA-B*44:02; experiment: as above
# [24] = biological target: HLA-B*53:01; experiment: as above
# [25] = biological target: HLA-B*58:01; experiment: as above
sequence,measurement,setting,value
EDFEIFYNL,pKd,[1],≤ 4.70
same,pKd,[2],≤ 4.70
same,pKd,[3],≤ 4.70
same,pKd,[4],≤ 4.70
same,pKd,[5],≤ 4.70
same,pKd,[6],≤ 4.70
same,pKd,[7],≤ 4.70
same,pKd,[8],≤ 4.70
same,pKd,[9],≤ 4.70
same,pKd,[10],≤ 4.70
same,pKd,[11],6.84
same,pKd,[12],≤ 4.70
same,pKd,[13],≤ 4.70
same,pKd,[14],≤ 4.70
same,pKd,[15],≤ 4.70
same,pKd,[16],≤ 4.70
same,pKd,[17],≤ 4.70
same,pKd,[18],≤ 4.70
same,pKd,[19],≤ 4.70
same,pKd,[20],≤ 5.30
same,pKd,[21],≤ 5.30
same,pKd,[22],≤ 5.30
same,pKd,[23],≤ 5.30
same,pKd,[24],≤ 5.30
same,pKd,[25],≤ 5.30
